Biological target: FLAG-epitope tagged HIV tat interacting protein of 30 kDa (f-TIP30) (human (isolated from HeLa cells)) (UniProt Q9BUP3)
Assay: affinity chromatography of B. mori fat bodies extract, SDS-PAGE of the unbound fraction; the filing puts this down to saturated beads

Sequence of UniProt Q9BUP3 (Q9BUP3 other isoform, or with tags, fused parts or gaps limits assumed): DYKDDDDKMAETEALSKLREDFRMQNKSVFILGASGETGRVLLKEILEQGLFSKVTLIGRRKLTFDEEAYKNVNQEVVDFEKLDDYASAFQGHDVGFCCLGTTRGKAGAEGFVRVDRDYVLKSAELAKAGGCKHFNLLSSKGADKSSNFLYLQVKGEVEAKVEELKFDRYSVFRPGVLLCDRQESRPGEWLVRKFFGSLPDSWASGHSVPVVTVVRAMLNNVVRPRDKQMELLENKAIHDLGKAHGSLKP

share of expressed protein remaining in the unbound fraction: > 30%
Substance: M2-Agarose resin (Sigma) (antibody)

— patent US6485937
